In experiment [1] the target is rPcrV protein (recombinant Pseudomonas PcrV) (Pseudomonas aeruginosa). The experiment in a line: SPR (Bio-Rad ProteOn XPR36); antibody captured on GLC sensor chip with anti-human IgG, rPcrV injected at multiple concentrations.
Experiment [2] has the same target. The experiment in a line: SPR (Bio-Rad ProteOn XPR36); antibody captured, rPcrV as analyte; table under the sensorgram.
Experiment [3] shares this target. The experiment in a line: SPR (Bio-Rad ProteOn XPR36); antibody captured by anti-human IgG on GLC chip, rPcrV injected.

The term Kd denotes a measure of binding affinity in units of concentration. By koff is commonly meant a measure of how fast the partners let go of each other. The kon is a measure of how fast the partners come together. With “V2L2-MD (germlined lead optimized V2L2) (antibody)”, in experiment [1], the Kd is 0.0456 nM, the koff turned out to be 4.03e-05 s⁻¹ and the kon is 884000 M⁻¹ s⁻¹. For the same substance, in experiment [2], the Kd was found to be 0.046 nM, the koff turned out to be 4.03e-05 s⁻¹ and the kon stood at 884000 M⁻¹ s⁻¹. Further, the fold increase in Kd over V2L2-GL in experiment [3] lay in the range of 2 to 3 fold.

These data come from patent US20250243262A1.
